Experimental data published in patent US8030048B2, “Enantioselective epoxide hydlrolase and method for preparing and enantiopure epoxide using the same” (Korea Ocean Research and Development Institute, priority 2005, dated 2011).

Tests used:
[1] = Optimum activity conditions of sEEH, nEEH and rEEH; type: biochemical
Method: After cloning the genes into pET-24a (+) expression vector, the vector was introduced into BL21-CondonPlus(DE3)-RP (Novagen), and then separated by SDS-PAGE. […] Also, the optimum activities of sEEH, nEEH, and rEEH occurred at neutral pH and mesophilic conditions (30 to 40° C.).

[2] = Enantioselective hydrolyzing activity of purified EHases toward SO; type: biochemical; details: purified enzyme
Method: (§1) Kinetic parameters of the rEEH1, rEEH2, rEEH3, sEEH, nEEH, and rEEH were determined by a GC analysis using (R)- or (S)- styrene oxide substrate. 100 ul of purified EHases were mixed with various concentrations of (R)- or (S)- styrene oxide in a 10 ml tube containing 1 ml of potassium phosphate buffer (100 mM, pH 8.0), and shake-incubated at 200 rpm and a temperature of 30° C. The extraction mixtures were extracted with 2 ml of hexane, and enantiomeric excess [ee; ee=100×(S−R)/(S+R)] toward enantiopure styrene oxide was analyzed with a chiraldex gamma-cyclodextrin trifluoroacetyl(G-TA) capillary GC column. Wherein, the FIG. 8 was diagramed with GC analysis for the hydrolyzing activities of enantioselective EHases (rEEH1, rEEH2, and rEEH3) toward racemic styrene oxide.
(§2) Kinetic parameters were estimated by non-linear regression analysis using a Sigma Plot program, and various substrates as depicted in FIG. 1 were also tested for the enantioselective hydrolyzing activity by rEEH1, rEEH2, rEEH3, sEEH, nEEH, and rEEH.

[3] = substrate: c1ccc([C@@H]2CO2)cc1; test: Kinetic parameters of purified rEEH by GC analysis with (R)- or (S)-styrene oxide; type: biochemical, Rhodobacterium sp. HTCC2654; details: other: 100 mM potassium phosphate pH 8.0, 30° C.
Method: as §1, §2

[4] = substrate: c1ccc([C@H]2CO2)cc1; test: as above; type: biochemical, Rhodobacterium sp. HTCC2654; details: other: 100 mM potassium phosphate pH 8.0, 30° C.
Method: as §1, §2

[5] = substrate: c1ccc([C@@H]2CO2)cc1; test: Kinetic parameters of purified sEEH by GC analysis with (R)- or (S)-styrene oxide; type: biochemical, Sphingopyxis alaskensis; details: other: 100 mM potassium phosphate pH 8.0, 30° C.
Method: as §1, §2

[6] = substrate: c1ccc([C@H]2CO2)cc1; test: as above; type: biochemical, Sphingopyxis alaskensis; details: other: 100 mM potassium phosphate pH 8.0, 30° C.
Method: as §1, §2

[7] = substrate: c1ccc([C@@H]2CO2)cc1; test: Kinetic parameters of purified nEEH by GC analysis with (R)- or (S)-styrene oxide; type: biochemical, Novosphingobium aromaticivorans; details: other: 100 mM potassium phosphate pH 8.0, 30° C.
Method: as §1, §2

[8] = substrate: c1ccc([C@H]2CO2)cc1; test: as above; type: biochemical, Novosphingobium aromaticivorans; details: other: 100 mM potassium phosphate pH 8.0, 30° C.
Method: as §1, §2

B1: Rhodobacterium sp. HTCC2654 epoxide hydrolase rEEH (RH), SEQ ID NO: 32 (Maritimibacter alkaliphilus HTCC2654) (protein)
chain: MNDKTFIETNGIRLATRIEGDGPLVILVHGFPETAYSWRKQASPLVEAGYRVCIPDVRGYGNSDAPEAVSAYAMEVMTRDFLGLAQALSEVPAVIVGHDWGAPLAWNTARLFPEQFRAVAGLSVPYAPPGDVAPIDLYHKLFTDKGRFFYQVYFQDEGVAEAELEADVEDSLAKFYYAWSGDCPPNGWPNDKAHGDPVLKGLPRPDLPLPWLTQDDLDRYAADFRTSGFRGPLNRYRNQREDHAFLKAHPSNPIIQQPSLFLYGDRDPVLTMFRTPPEDLLPKTLADLRGVHRLPGVGHWTQQEAPEAVNKALIDWLATL
notes: soluble-EH-like alpha/beta hydrolase
- optimum temperature [1]: 30-40 °C
- enantiomer preference in hydrolysis of styrene oxide, in words [2]: hydrolyzed (R)-enantiopure styrene oxide
- Km [3]: 5.2 ± 0.3 mM
- Vmax [3]: 54.1 µmol/min/mg
- kcat [3]: 32 s⁻¹
- kcat/Km [3]: 6160 M⁻¹ s⁻¹
- Km [4]: 4.1 ± 0.3 mM
- Vmax [4]: 11.3 µmol/min/mg
- kcat [4]: 6.7 s⁻¹
- kcat/Km [4]: 1630 M⁻¹ s⁻¹

B2: sEEH: 49 kDa epoxide hydrolase purified from Sphingopyxis alaskensis, SEQ ID NO: 28 (protein, listed as Erythrobacter litoralis)
chain: MSPAKSISLRRLLSTAISVAALGMTLQSSPSFASSAGPSTAITVSAAAAVAAPQDESIRPFHVSIPEEALTDLRRRLAETRWPDREKVSDASQGVQLDRLEPLVRYWGTDYDWRKGEARLNAVPQFITTIDGLDIQFIHIRSKHKGAMPLLMTHGWPGSPFELLKTVGPLTDPTAHGGKAEDAFDLIMPTYPGYGFSGKPNEAWDPARVARAWDVLMKRLGYKNYVSQGGDWGAIISQVLAVQAPEGLLGIHTNMPGTVPPGVLKLVRAKQPAPDSYSPEEKIAYAGLETFYGKGFGYAEMMNTRPQTLGYGLSDSPVGLAAFLYEKIATWTDSGGNPESVLTRDEILDNITLYWLTNTGTSSSRSYWDAAQGPGGPFNAIEISKVPVAVTVFPGEIYRAPRSWGEKSFKKLIYWNEVDKGGHFAAWEQPELFAAEIRAAFRPLREKK
- optimum pH [1]: neutral pH
- enantiomer preference in hydrolysis of styrene oxide, in words [2]: not enantioselective

B3: Sphingopyxis alaskensis epoxide hydrolase sEEH (Sp), SEQ ID NO: 28 (Sphingopyxis alaskensis RB2256) (protein)
chain: SSAGPSTAITVSAAAAVAAPQDESIRPFHVSIPEEALTDLRRRLAETRWPDREKVSDASQGVQLDRLEPLVRYWGTDYDWRKGEARLNAVPQFITTIDGLDIQFIHIRSKHKGAMPLLMTHGWPGSPFELLKTVGPLTDPTAHGGKAEDAFDLIMPTYPGYGFSGKPNEAWDPARVARAWDVLMKRLGYKNYVSQGGDWGAIISQVLAVQAPEGLLGIHTNMPGTVPPGVLKLVRAKQPAPDSYSPEEKIAYAGLETFYGKGFGYAEMMNTRPQTLGYGLSDSPVGLAAFLYEKIATWTDSGGNPESVLTRDEILDNITLYWLTNTGTSSSRSYWDAAQGPGGPFNAIEISKVPVAVTVFPGEIYRAPRSWGEKSFKKLIYWNEVDKGGHFAAWEQPELFAAEIRAAFRPLREKK
- Km [5]: 4 ± 0.3 mM
- Vmax [5]: 8.9 µmol/min/mg
- kcat [5]: 7.42 s⁻¹
- kcat/Km [5]: 1860 M⁻¹ s⁻¹
- Km [6]: 5.25 ± 0.3 mM
- Vmax [6]: 12.1 µmol/min/mg
- kcat [6]: 10.1 s⁻¹
- kcat/Km [6]: 1920 M⁻¹ s⁻¹

B4: Novosphingobium aromaticivorans epoxide hydrolase nEEH (Novo), SEQ ID NO: 30 (Novosphingobium aromaticivorans DSM 12444) (protein)
chain: MNVAPFVVDIPRGEIEDLHRRIDMTRWPEKETVDDWSQGTPLGALQDFVSYWRGGYDWYACQRMLNDWGMFETEIDGVAIRFLHVRSAQADARPLLLTHGWPGSILEFRRCIAPLTRPEEHGGTAADAFHLVIPCLPGYGFSGKPTRKGWSVQKIAQAWGELMKRLGYESWLAQGGDWGSAVTTAIGALKVEGCAGIHLNMPIARPLPEDLAAPTPEELRALTALQHYQDWDSGYSKEQATRPQTVGYGLVDSPVGLAGWIYEKMWAWTDNEGAPEDALSRDDMLDNIMLYWLTAAGASSARLYWESFASFGPSQIDIPAAASAFPKEIIPAPRKWFERNCSKLVYWGELEKGGHFAAWEQPEAFVKELRAAFSLMC
- optimum pH [1]: neutral pH
- enantiomer preference in hydrolysis of styrene oxide, in words [2]: not enantioselective
- Km [7]: 6 ± 0.3 mM
- Vmax [7]: 40 µmol/min/mg
- kcat [7]: 27.8 s⁻¹
- kcat/Km [7]: 4630 M⁻¹ s⁻¹
- Km [8]: 4 ± 0.3 mM
- Vmax [8]: 18.7 µmol/min/mg
- kcat [8]: 13 s⁻¹
- kcat/Km [8]: 3240 M⁻¹ s⁻¹
